Test results taken from US20070298445, “Cancer Therapeutic” (published 2007).

Target: ZNF306 (UniProt Q9BRR0 Q9BRR0:1-538)
Test: cell_activity; luciferase induction, duplicate tandem copies upstream of minimal tk promoter
Details: tags: expression plasmid or cDNA in colon cancer cells

ZNF306, sequence (Q9BRR0 whole entry, one chain of several): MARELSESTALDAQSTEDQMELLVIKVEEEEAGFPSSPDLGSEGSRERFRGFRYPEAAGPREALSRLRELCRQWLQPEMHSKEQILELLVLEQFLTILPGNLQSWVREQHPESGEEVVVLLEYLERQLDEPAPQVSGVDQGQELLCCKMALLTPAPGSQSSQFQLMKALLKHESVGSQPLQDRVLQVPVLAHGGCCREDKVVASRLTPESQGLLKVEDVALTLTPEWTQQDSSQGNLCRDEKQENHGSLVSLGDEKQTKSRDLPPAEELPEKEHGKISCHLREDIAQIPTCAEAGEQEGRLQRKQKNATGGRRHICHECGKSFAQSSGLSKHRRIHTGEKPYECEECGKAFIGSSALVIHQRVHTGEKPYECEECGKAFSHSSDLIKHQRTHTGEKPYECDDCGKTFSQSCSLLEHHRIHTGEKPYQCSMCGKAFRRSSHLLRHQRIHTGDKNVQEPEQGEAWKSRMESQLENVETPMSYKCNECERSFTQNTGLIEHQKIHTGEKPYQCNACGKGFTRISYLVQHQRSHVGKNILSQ

B1: integrin beta4 intron 1 wt probe (dsDNA)
DNA 1: TGAGGGG
DNA 2: CCCCTCA
- activity: 6 fold
